Experimental data reported in paper PMC3100534 (Nanomedicine : nanotechnology, biology, and medicine, 2011).

Legend:
[1] = assay type: physicochemical; conditions: N = 90/x, ~90 DSPE-PEG2000 monomers per SSM, x = lipid molecules at saturation
[2] = cited from earlier work

For Human neuropeptide Y [NPY], the “maximal number of NPY molecules that could self-associate with one SSM” value [1] is given as “three” and the half-life in vivo [2] is given as “minutes”.
